From patent publication US20100303785A1 (RAMOT AT TEL AVIV UNIVERSITY, published 2010) come the findings set out here.

The target in this experiment is T1, Recombinant tau containing three tubulin binding repeats (3R) (Homo sapiens, UniProt P10636-5 1-410, limits assumed).
T1 construct: also called Tau protein 3R; 3R-tau
Kind of experiment: dot blot: peptide on nitrocellulose, incubated with 3R tau, detected with tau5 antibody.

T1 sequence (P10636 other isoform, or with tags, fused parts or gaps limits assumed): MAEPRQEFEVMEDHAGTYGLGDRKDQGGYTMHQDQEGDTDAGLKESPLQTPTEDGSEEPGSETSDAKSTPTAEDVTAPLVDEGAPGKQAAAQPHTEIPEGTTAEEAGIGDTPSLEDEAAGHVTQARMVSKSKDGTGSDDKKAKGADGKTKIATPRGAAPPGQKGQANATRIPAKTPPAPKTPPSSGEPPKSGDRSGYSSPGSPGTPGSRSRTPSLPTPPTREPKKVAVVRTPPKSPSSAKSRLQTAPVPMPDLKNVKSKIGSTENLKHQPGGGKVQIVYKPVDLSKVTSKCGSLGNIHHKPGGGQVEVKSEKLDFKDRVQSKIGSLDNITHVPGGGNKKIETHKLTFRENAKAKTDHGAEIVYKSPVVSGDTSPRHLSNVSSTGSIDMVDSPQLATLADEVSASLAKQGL
Method: The membrane was further incubated with 2 μM tau-three microtubule binding domain repeats (1.5 hr, room temperature). The non-specific sites were blocked by soaking in a blocking solution (10 mM Tris, 6 mM NaCl, 0.05% Tween 20) that was supplemented with 5% low-fat milk (1 hr at room temperature). The membrane was incubated with primary antibody (tau5 antibody 1:1000), dissolved in 5% milk in blocking solution (12 hours at 4 C). The membrane was then washed three times with the blocking solution (3×10 min), incubated with secondary antibody conjugated with horseradish peroxidase (HRP) (1 hr at room temperature) and washed again three times with blocking solution (10 min×3). The membrane was incubated with ECL reagent (Western blotting detection system; Amersham Biosciences) for 1 min, covered and exposed Biomax Light Film (Kodak, Rochester, N.Y., USA).

B1: vasoactive intestinal peptide VIP (peptide, UniProt P01282 125-152, looked up)
peptide: HSDAVFTDNYTRLRKQMAVKKYLNSILN
notes: Negative control peptide in the dot blot; the assay used the peptide itself; also called VIP peptide; control peptide
Take B1: the binding result was “no binding”.
